Blank lines part the entries; values can stand above or below the binder they belong to.
Columns and labels:
[1] = target: T1, human B7-H4 expressed at the cell surface (human, UniProt Q7Z7D3 25-282); test: cell-based or functional assay
T1 sequence (looked up): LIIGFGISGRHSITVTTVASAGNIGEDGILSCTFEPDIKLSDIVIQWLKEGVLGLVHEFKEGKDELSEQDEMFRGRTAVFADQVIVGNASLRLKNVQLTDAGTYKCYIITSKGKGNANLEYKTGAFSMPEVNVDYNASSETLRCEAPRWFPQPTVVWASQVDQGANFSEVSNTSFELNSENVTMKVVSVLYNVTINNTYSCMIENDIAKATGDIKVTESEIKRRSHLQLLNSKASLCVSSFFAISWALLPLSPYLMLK

[2] = target: T1, human B7-H4 expressed at the cell …; test: flow cytometry on macrophages
[3] = target: T2, recombinant B7-H4 protein (extracellular domain, IgC+IgV, fused to 6xHIS Tag) (human, UniProt Q7Z7D3 29-259, biotinylated in the capture ELISA (site not stated)); test: capture ELISA, immobilized scFv, biotinylated rB7-H4, SA-HRP
T2 construct: also called rB7-H4; rhB7-H4
T2 sequence: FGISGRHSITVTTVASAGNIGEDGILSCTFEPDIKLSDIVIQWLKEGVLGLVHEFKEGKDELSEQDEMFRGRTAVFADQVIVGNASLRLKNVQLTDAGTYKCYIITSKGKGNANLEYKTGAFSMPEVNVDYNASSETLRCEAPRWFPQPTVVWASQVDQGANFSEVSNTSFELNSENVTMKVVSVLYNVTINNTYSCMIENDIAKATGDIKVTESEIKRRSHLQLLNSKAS
Experimental: FIG. 6A is a schematic representation of protein-based (FIG. 6B) and cell-based isolation (FIG. 6C) strategies. Protein-based and cell-based isolated anti-B7-H4 scFvs were plastic-immobilized and incubated with serial dilutions of biotinylated recombinant B7-H4 (black diamonds) or irrelevant control antigen (BSA, grey triangles). Protein binding to scFv was detected with SA-HRP. Colorimetric signal was developed with TMB substrate solution, quenched with sulfuric acid and read at 450 nm on a Biotek ELISA reader.
The yeast-display scFv library derived from ovarian cancer patients was first screened by magnetic and flow sorting for anti-B7-H4 scFv using progressively decreasing concentrations of human biotinylated B7-H4 recombinant protein (rhB7-H4). Briefly, the library was enriched magnetically 3 times for scFv that bound to 1 ug/ml biotinylated rhB7-H4, and two times flow sorted with 1 ug/ml and 0.5 ug/ml biotinylated rhB7-H4. Selected yeast-display scFv were flow sorted for c-myc/B7-H4 double positive clones. […] Binding to serial dilutions of biotinylated rB7-H4 or control protein was detected using streptavidin-HRP. Colorimetric signals were developed with TMB substrate solution quenched with sulfuric acid and read at 450 nm on a […] Sequencing of scFv clones 26 and 56 was identified 2 unique clones that were then produced and Ni purified.

IFN-γ secretion of MART-1 TCR T cells in the presence of B7-H4+ TAMs [1]: 1.5 fold
B1: anti-B7H4 scFv clone 26 (scFv)
scFv: DIVMTQTPATLSVSPGKRATLSCRASQSVSSNYLAWYQQKPGQAPRLLIYGASRRATGIPDRFSGSGSGTDFTLTISSLQAEDVAVYYCQQYGSSPRTFGQGTKLEIKGGSSRSSSSGGGGSGGGGQVTLKESGAEVKNPGSSVKVSCKASGGTFSSYAISWLRQAPGQGLEWMGWINPNSGGSDYAQRFQGRVTMTRDTSINTVYMELSRLRSDDTAVYYCARVEKRGYYYGMDVWGQGTMVTVSSFEGSEQ

binding result [2]: binds
binding result [3]: binds
B2: anti-B7H4 scFv clone 56 (scFv)
scFv: QPVLTQSHSVSESPGKTVTITCTGSGGNIATQYVQWYQQRPGSGPTTVIYDDDQRPSGVPDRFTGSIDSSSNSASLTISGLKTEDEADYYCQSYDSTNHGVFGGGAKVTVLGGSSRSSSSGGGGSGGGGQVQLQQWGPGLVKPSETLSLTCTVSGGSISSSSYYWGWIRQPPGKGLEWIGSIYYSGSTYYNPSLKSRVTISVDTSKNQFSLKLSSVTAADTAVYYCARLSKGYSSSWAYSYYGPDAWGQGTMVTVSSFEGSEQ
notes: Human scFv from a yeast-display library, made soluble from the yeast secretion vector p416-BCCP; Soluble scFv was detected through V5 and purified on Ni; also called scFv #56; 56 scFv

IFN-γ production of MART-1 TCR T cells in the presence of B7-H4+ TAMs [1]: > 2 fold
B3: anti-B7H4 scFv clone 3#54 (scFv)
scFv: RPVLTQPPSAAGTPGQRVTISCSGSSSNIGSNYVYWYQQLPGMAPKLLIYTNNQRPSGVPGRFSGSKSGTSASLAISGLRSEDEADYYCAAWDDSLNGWVFGGGTELTVLGGSSRSSSSGGGGSGGGGQVQLQESGPGLVKPSETLSLTCNVSGRSVSSGFYWSWIRQRPGKGLEWVGSIYRSGLTYYNPSLKSRVTISVDTSKNQFSLKLSSVTAADTAVYYCARATPWYYYGMDVWGQGTTVTVSSFEGSEQ

IFN-γ production of MART-1 TCR T cells in the presence of B7-H4+ TAMs [1]: > 2 fold
B4: anti-B7H4 scFv clone 3#68 (scFv)
scFv: QPGLTQPPSASGTPGQRVTISCSGSSSNIGSNYVYWYQQFPGTAPKLLIYRNNQRPSGVPDRFSGSKSGTSASLAISGLRSEDEADYYCAAWDDSLSVWVFGGGTKVTVLGGSSRSSSSGGSGSGGGGQVTLKESGAEVKNPGSSVKVSCKASGGTFSSYAISWLRQAPGQGLEWMGWINPNSGGSDYAQRFQGRVTMTRDTSINTVYMELSRLRSDDTAVYYCARVEKRGYYYGMDVWGQGTMVTVSSFEGSEQ

— patent publication US20140294861A1 (University of Pennsylvania, published 2014)
